Source: US7393670B2, “Tyrosyl-tRNA synthetase variants” (Japan Science and Technology Agency, priority 2001, dated 2008)

How the values were obtained:
Format in all cases: biochemical
[1] = system: tyrosine or 3-iodotyrosine for the full-length tRNA; experiment: Aminoacylation of full-length tRNA by acidic polyacrylamide gel electrophoresis (Wolfson); conditions: acidic PAGE; 200 μM amino acid, enzyme 50 nM, 37° C. for 3 min
Description: In the third method, levels of aminoacylation activity in the presence of tyrosine or 3-iodotyrosine for the full-length tRNA were assayed by the same method as. acidic polyacrylamide gel electrophoresis described by Wolfson et al. (Wolfson, A. D. et al., RNA, 4:1019-1023, 1998). The result is shown in FIG. 1 as a photo, substitute for a drawing.
In the third method, the aminoacylation activity for tyrosine or 3-iodotyrosine for tRNA in full length was assayed by the same method as acidic polyacrylamide electrophoresis by the method of Wolfson et al. (Wolfson, A. D. et al., RNA, 4:1019-1023, 1998). Tyrosine or iodotyrosine at 200 μM and the enzyme at 50 nM were incubated at 37° C. for 3 min, and subsequently the electrophoresis was carried out. The result of the aminoacylation activity of the enzymes with double mutations are shown on the photo, substitute for a drawing, in FIG. 1. In FIG. 1, left three lanes are from the wild-type enzyme, middle three lanes are from the enzyme modified at position 37 with valine (37V) and right three lanes are from the enzyme modified at positions 37 and 195 with valine and cysteine (VC), respectively. Three lanes in each group show the case without the addition of the amino acid (w/o aa), the case with the addition of 3-iodotyrosine (200 μM) (1-Tyr), and the case with the addition of tyrosine (200 μM) (Tyr), respectively from the left.

[2] = Aminoacylation reaction, simplified Lloyd's method, inorganic phosphate detected with Biomol green; parameters: key: ***: the reaction could be detected strongly at 25 nM; **: strongly at 250 nM; *: weakly at 250 nM; the activity is high in the order of *** > ** > * > —; conditions: Table 3; tyrosine 200 μM; 37° C. for 4 min
Description: (§1) In the first method, Lloyd's method (Nucleic Acids Research, 23:2886-2892, 1995) where inorganic phosphate produced by pyrophosphatase-drived hydrolysis of pyrophosphate which was one of the reaction products of the aminoacylation reactions was quantified was simplified, and the inorganic phosphate was detected using Biomol green (Funakoshi) to carry out the measurement of the aminoacylation reaction.
(§2) Amino acid concentrations were 200 μM and 1 mM for tyrosine and 3-iodotyrosine, respectively.
The method where the aminoacylation reaction is measured by quantifying inorganic phosphate produced by pyrophosphatase-drived hydrolysis of pyrophosphate which is one of reaction products of the aminoacylation has been described by Lloyd et al. (Nucleic Acids Research, 23:2886-2892, 1995). In one method of the invention, this method was simplified and the aminoacylation reaction was measured by the detection of inorganic phosphate using Biomol green (Funakoshi). […] To stop the reaction, 0.1 ml of Bio mol green was added. Absorbance of its supernatant was measured at 630 nm.

[3] = as above; parameters: key: ***: the reaction could be detected strongly at 25 nM; **: strongly at 250 nM; *: weakly at 250 nM; the activity is high in the order of *** > ** > * > —; conditions: Table 3; 3-iodotyrosine 1 mM; 37° C. for 4 min
Description: as §1, §2
The method where the aminoacylation reaction is measured by quantifying inorganic phosphate produced by pyrophosphatase-drived hydrolysis of pyrophosphate which is one of reaction products of the aminoacylation has been described by Lloyd et al. (Nucleic Acids Research, 23:2886-2892, 1995). In one method of the invention, this method was simplified and the aminoacylation reaction was measured by the detection of inorganic phosphate using Biomol green (Funakoshi). Each enzyme obtained was incubated with 0.05 ml of the buffer B containing 1 mM ATP (Seikagaku Corporation), 30 μM purified crude tyrosyl-tRNA, and 100 μM tyrosine or 0.5 mM 3-iodotyrosine at 37° C. for one hour. To stop the reaction, 0.1 ml of Bio mol green was added. Absorbance of its supernatant was measured at 630 nm.

B1: VC: E. coli TyrRS double variant: position 37 Valine, position 195 Cysteine (protein, UniProt P0AGJ9 2-424, looked up, variant Y37V Q195C)
Tyrosine--tRNA ligase: ASSNLIKQLQERGLVAQVTDEEALAERLAQGPIALVCGFDPTADSLHLGHLVPLLCLKRFQQAGHKPVALVGGATGLIGDPSFKAAERKLNTEETVQEWVDKIRKQVAPFLDFDCGENSAIAANNYDWFGNMNVLTFLRDIGKHFSVNQMINKEAVKQRLNREDQGISFTEFSYNLLQGYDFACLNKQYGVVLCIGGSDQWGNITSGIDLTRRLHQNQVFGLTVPLITKADGTKFGKTEGGAVWLDPKKTSPYKFYQFWINTADADVYRFLKFFTFMSIEEINALEEEDKNSGKAPRAQYVLAEQVTRLVHGEEGLQAAKRITECLFSGSLSALSEADFEQLAQDGVPMVEMEKGADLMQALVDSELQPSRGQARKTIASNAITINGEKQSDPEYFFKEEDRLFGRFTLLRRGKKNYCLICWK
- specificity for the tyrosine analogue (attachment of amino acid to tRNA) [1]: high specificity for the tyrosine analogue
- Aminoacylation activity, Tyrosine [2]: *
- Aminoacylation activity, 3-iodotyrosine [3]: **
